This series concerns the molecule itself. The series is described as follows: SEC; Ni-NTA affinity purified R-est6 loaded on a Superdex 75 column calibrated with known molecular weight markers; protein in peak 1 and peak 2 confirmed as R-est6 on SDS-PAGE. On the technique in general: In gel filtration, larger molecules generally elute earlier.

B1: R-est6, family 6 carboxylesterase from Methylococcus capsulatus (bath) (enzyme, Methylococcus capsulatus (bath strain), UniProt Q60CN0 1-336, looked up)
chain: MSTFDRGFARLLLEICRYTYAKAFALAPEEGDALQWIEQQGGKPDPASLEPIRGGDTSVACVFRYPDKNVVAYMGTKTEFDNAVNAKDSIEDWLNNFRAAPVPFKLGKEHLGLDKEVELPGRVHAGFLSELKAVQAKVIDVLSKNGGKDKPLYLTGHSQGGAEATLATVALLAGGFKVAATYTFAAPRAGDRTFADAVPAEFPFHRIEFGDDIVPHVPPTLLSRWVKTLVTVPRHLPLKRFGVPVKVNEFLELSVHDLGYVGVGRLCYGNHESGQLHVDMSVRQEASLFLGRLTRLLRHPEHWAEHHHLAGTRAEVSAGKKGNYTALVSDFPIVEG
notes: also called MCA0075
With B1, the binding result was “binds”.
